From patent US20220106398A1 (IGM BIOSCIENCES, published 2022)

B1: GITR-Mab-14 IgM/J* (antibody, not shown: a dimerising Fc or GST; large carriers)
heavy: EVQLLESGGGLVKPGGSLRLSCAASGFRFSVYWMSWVRQAPGKGLEWVSGISGSGGTTYYADSVKGRFTISRDDSKNTLYLQMNSLKTEDTAVYYCARVRRDGYNYNFDYWGQGTLVTVSS
light: DIQMTQSPSSLSASVGDRVTITCQASQDISNYLNWYQQKPGKAPKLLIFDASSLEAGVPSRFSGSGSGTDFTLTISSLQPEDFATYYCQQANSFPPTFGQGTEVEIK
chain: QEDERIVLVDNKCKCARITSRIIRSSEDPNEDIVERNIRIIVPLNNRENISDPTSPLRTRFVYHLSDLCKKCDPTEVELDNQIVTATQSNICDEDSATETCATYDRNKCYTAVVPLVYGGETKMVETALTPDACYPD
B2: GITR-Mab-3 IgM/J* (antibody, not shown: a dimerising Fc or GST; large carriers)
heavy: QVQLVQSGAEVKKPGASVKVSCKASGYTFTSYDINWVRQAPGQGLEWMGWISGYNGNTNYAQKFQGRVTMTRDTSTSTVYMELSSLRSEDTAVYYCARSHEYYYYYGMDVWGQGTLVTVSS
light: EIVMTQSPATLSVSPGERATLSCRASQSVSSSYLAWYQQKPGQAPRLLIYGASTRATGIPARFSGSGSGTEFTLTISSLQSEDFAVYYCQQYYTTPFTFGPGTKVDIK
chain: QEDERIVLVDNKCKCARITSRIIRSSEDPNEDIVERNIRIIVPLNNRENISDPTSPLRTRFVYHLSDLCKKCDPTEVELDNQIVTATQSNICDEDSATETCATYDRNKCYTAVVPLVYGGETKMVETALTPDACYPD
B3: GITR-Mab-6 IgM/J* (antibody)
heavy: QVQLVQSGAEVKKPGASVKVSCKASGYAFTAYYLHWVRQAPGQGLEWMGWMNPNSGNTGYAQKFQGRVTMTRDTSTSTVYMELSSLRSEDTAVYYCAREGWGYYDGGFDPWGQGTLVTVSS
light: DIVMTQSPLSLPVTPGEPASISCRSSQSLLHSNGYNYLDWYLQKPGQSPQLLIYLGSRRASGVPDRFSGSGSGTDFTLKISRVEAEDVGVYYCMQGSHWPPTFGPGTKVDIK
chain: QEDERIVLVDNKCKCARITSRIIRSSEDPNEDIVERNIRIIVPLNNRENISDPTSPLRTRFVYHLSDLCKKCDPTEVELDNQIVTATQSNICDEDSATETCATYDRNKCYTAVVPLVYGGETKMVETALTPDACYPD
notes: IgM with variant J-chain J* (Y102A); not shown: IgM heavy chain constant region of proprietary vector; light chain constant region of proprietary vector (detected with anti-human kapp)

Assays:
[1] = biological target: T1, GITR on GITR/NFkB-luciferase reporter Jurkat cells (UniProt Q9Y5U5 26-241, limits assumed); experiment: cell-based or functional assay
T1 sequence (looked up): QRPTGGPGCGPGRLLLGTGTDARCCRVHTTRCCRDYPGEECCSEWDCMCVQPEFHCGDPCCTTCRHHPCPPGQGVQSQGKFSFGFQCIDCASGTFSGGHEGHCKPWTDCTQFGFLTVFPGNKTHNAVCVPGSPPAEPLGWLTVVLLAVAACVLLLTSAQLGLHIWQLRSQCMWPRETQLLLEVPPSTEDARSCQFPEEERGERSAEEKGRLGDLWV

[2] = biological target: T2, human GITR on HEK 293 cells (human, UniProt Q9Y5U5 26-241); experiment: flow cytometry on HEK 293 cells expressing human GITR
T2 construct: Bought cell line; also called GITR-expressing 293 cells; HEK 293 cells expressing human GITR (CrownBio, #C2011)
T2 sequence: T1 sequence (looked up)
Protocol: Cells were washed twice, then stained for 30 minutes at 4° C. with 5 ug/mL mouse anti-human kappa-ALEXA FLUOR® 647 secondary antibody (Southern Biotech #9230-31) diluted in FACS buffer. Cells were washed twice, resuspended in FACS Stain Buffer, and signal was acquired by flow cytometry.

Binder	EC50 [1]	Max Fold activation [1]	binding result [2]
B1	0.34 µg/mL	1.6 fold	–
B2	5 µg/mL	1.3 fold	–
B3	–	–	binds
